What all share (experiment): fluorescence polarisation
In general terms: Fluorescence polarisation rises when a labelled molecule tumbles more slowly, as on binding a larger partner.

Experiment [1] concerns the target T1, wild type Rb pocket domain (Rb^P) (human, UniProt P06400 380-788).
T1 sequence: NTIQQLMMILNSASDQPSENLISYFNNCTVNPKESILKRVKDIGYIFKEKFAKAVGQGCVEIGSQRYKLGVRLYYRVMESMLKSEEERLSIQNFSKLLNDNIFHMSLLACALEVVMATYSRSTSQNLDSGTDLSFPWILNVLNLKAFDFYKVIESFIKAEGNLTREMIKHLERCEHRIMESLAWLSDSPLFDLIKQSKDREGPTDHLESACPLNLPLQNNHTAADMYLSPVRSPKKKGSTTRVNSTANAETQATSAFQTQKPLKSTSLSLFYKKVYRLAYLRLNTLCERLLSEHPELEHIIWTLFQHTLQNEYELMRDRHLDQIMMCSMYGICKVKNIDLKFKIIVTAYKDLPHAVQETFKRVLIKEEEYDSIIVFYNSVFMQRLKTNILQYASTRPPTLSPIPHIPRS

The target in a further experiment is T2, Rb^P I703V (human, UniProt P06400 380-788, I703V).
T2 sequence: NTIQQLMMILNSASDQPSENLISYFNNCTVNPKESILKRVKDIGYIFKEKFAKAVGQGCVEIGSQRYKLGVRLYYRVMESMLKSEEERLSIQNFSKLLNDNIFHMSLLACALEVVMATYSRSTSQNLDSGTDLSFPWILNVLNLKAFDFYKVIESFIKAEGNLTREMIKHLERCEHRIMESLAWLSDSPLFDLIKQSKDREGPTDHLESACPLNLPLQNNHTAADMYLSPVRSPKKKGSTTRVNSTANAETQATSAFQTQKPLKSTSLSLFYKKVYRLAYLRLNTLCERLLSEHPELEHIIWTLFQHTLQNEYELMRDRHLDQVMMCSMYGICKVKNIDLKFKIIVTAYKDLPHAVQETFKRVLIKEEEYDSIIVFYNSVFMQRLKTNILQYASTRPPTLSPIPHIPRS

For another experiment, the target named is T3, Rb^P E492Q (human, UniProt P06400 380-788, E492Q).
T3 sequence: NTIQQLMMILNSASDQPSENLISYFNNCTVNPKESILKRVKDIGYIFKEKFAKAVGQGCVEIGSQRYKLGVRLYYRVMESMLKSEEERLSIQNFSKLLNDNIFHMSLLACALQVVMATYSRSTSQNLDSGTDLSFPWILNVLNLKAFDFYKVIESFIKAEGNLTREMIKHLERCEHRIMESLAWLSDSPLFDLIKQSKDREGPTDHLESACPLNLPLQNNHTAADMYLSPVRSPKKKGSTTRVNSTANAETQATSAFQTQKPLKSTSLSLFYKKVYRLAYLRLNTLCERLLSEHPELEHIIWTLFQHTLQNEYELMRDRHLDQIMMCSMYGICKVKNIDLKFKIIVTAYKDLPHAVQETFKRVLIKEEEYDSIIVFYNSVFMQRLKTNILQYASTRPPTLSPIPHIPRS

Another experiment concerns the target T4, Rb^P A525G (human, UniProt P06400 380-788, A525G).
T4 sequence: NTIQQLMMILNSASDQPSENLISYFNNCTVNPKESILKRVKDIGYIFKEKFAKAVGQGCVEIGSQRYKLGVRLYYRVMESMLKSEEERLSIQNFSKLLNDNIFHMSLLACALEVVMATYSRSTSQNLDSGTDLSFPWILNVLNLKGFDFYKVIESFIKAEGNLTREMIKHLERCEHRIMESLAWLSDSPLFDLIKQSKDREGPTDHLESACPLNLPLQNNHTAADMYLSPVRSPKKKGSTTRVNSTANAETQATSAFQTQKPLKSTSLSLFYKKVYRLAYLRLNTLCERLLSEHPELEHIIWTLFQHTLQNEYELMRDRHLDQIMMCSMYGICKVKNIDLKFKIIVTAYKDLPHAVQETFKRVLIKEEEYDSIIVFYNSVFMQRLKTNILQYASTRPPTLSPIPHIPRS

In a further experiment the target is T5, Rb^P R763T (human, UniProt P06400 380-788, R763T).
T5 sequence: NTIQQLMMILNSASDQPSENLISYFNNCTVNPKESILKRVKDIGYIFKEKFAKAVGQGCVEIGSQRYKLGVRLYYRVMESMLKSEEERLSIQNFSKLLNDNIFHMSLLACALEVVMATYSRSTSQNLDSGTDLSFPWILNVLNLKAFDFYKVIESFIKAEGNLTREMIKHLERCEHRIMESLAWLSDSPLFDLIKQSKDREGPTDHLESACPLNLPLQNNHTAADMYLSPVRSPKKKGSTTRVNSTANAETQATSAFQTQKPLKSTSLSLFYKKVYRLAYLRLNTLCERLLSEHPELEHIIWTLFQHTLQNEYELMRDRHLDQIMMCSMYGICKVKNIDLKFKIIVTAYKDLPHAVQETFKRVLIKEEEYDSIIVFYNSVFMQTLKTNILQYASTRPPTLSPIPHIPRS

These results are taken from publication doi:10.1101/2024.09.22.614354 (bioRxiv, 2024).

As a reminder, the Kd is the concentration at which binding is half-saturated. The low end stands for a tighter complex, the high end for a looser complex. In experiment [1], DLYCYEQLN (not fully specified; TMR fluorescent label (TMR-E7^LxCxE)) [TMR-E7^LxCxE (LxCxE peptide of the E7 oncoprotein from HPV, TMR-labeled)] came in with an equilibrium dissociation constant (Kd) of 12 nM. Moreover, the binding result with Rb^P I703V, with Rb^P E492Q, with Rb^P A525G and in the experiment with Rb^P R763T was “binds” in each case.
